Measured values from patent CN114685664A (UNIV INNER MONGOLIA AGRI, dated 2022).
Each block holds one binder with its values, some of them ahead of it.

Columns and labels:
Raji细胞表面CD20蛋白 [1] = target: T1, Raji细胞表面CD20蛋白 (human, UniProt P11836 1-297); assay: immunofluorescence on fixed Raji cells, sdAb 10 μg/mL, fluorescent anti-His detection
T1 construct: whole, on cells; Raji cells used as CD20-positive cells; also called Raji细胞表面CD20分子
T1 sequence (looked up): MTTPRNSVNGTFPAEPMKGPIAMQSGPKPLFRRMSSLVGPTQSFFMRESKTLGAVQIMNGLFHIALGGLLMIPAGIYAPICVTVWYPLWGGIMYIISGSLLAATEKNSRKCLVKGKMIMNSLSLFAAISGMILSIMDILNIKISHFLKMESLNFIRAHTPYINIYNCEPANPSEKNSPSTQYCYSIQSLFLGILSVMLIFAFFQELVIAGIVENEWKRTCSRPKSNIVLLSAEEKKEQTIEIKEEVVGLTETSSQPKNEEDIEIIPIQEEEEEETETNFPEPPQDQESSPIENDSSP

人CD20胞外区多肽 [2] = target: T2, 人CD20胞外区多肽 (human); assay: phage ELISA, CD20 extracellular peptide coated at 2.5 μg/mL, OD450
T2 construct: Synthetic 47-residue peptide of the extracellular region of human CD20 (Sangon); also called CD20多肽; CD20抗原
T2 peptide: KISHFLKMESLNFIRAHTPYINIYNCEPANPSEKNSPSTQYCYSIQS

人CD20胞外区多肽 [3] = target: T2, 人CD20胞外区多肽; assay: ELISA, CD20 extracellular peptide coated at 2.5 μg/mL, BsNb 30 to 5 μg/mL, HRP anti-His detection, OD450
Raji细胞表面CD20蛋白 [4] = target: T1, Raji细胞表面CD20蛋白; assay: flow cytometry, FITC-labelled BsNb 100 μg/mL on Raji cells

binding result (Raji细胞表面CD20蛋白 [1]): binds
binding result (人CD20胞外区多肽 [2]): binds
B1: sdAb11 (抗CD20单域重链抗体) (VHH)
VHH: DVQLVESGGGLVQPGGSLRLSCTAPGFTSNNCGMDWWRQAAGKQREWVSSIATDGSTSYADSVKGRFTISKDKAKDTVFLQMNSLKPEDTAMYNCAMRRWGWGCLGRLWQSDFGYWGQGTQVTVSS
notes: Expressed in E. coli BL21(DE3) from VHH-pET-25b-SBP and purified on Ni-NTA; also called CD20单域抗体; Anti-CD20 sdAb; not shown: tags from vector pET-25b-SBP (His tag detected with anti-His antibody; SBP)

binding result (人CD20胞外区多肽 [3]): binds
binding result (Raji细胞表面CD20蛋白 [4]): binds
B2: Anti-CD20/CD3 BsNb (bispecific antibody)
chain: EVQLLEEVQLVESGGGLVQPGGSLRLSCAASGFTFDDYGMSWVRQAPGKWLEWVSDISWNGGSTYYADSVKGRFTISRDNAENTLYLQMNSLKPDDTAVYYCAKMGEGGWGANDYWGQGTQVTVSSSGGGGSGGGGSGGGGSMAQVQLQMADVQLVESGGGLVQPGGSLRLSCTAPGFTSNNCGMDWWRQAAGKQREWVSSIATDGSTSYADSVKGRFTISKDKAKDTVFLQMNSLKPEDTAMYNCAMRRWGWGCLGRLWQSDFGYWGQGTQVTVSS
notes: Single chain: anti-CD20 sdAb, linker, anti-CD3 sdAb; also called CD20 sdAb-linker-CD3 sdAb; 抗CD20和CD3双特异性单域抗体
